Data reported in patent publication US20250090676A1 (SUTRO BIOPHARMA, published 2025).

Tests used:
[1] = biological target: T1, human FOLR1-HIS (human, UniProt P15328 25-233); test: SPR (Biacore), antibody captured on anti-Fc, human FOLR1-HIS analyte, 25 C
T1 construct: Analyte of the Biacore assay; also called FolRα-ECD; extracellular domain of FOLR1; not shown: HIS tag

[2] = biological target: T2, human folate receptor alpha (hFOLR1) (human, UniProt P15328 25-234); test: cell-based or functional assay
[3] = biological target: T3, murine folate receptor alpha (mouse, UniProt P35846 25-232); test: FACS, CHO-mFOLR1 cells;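 note: flow cytometry binding of serially diluted test antibodies to transfected CHO cells on ice, mean fluorescence intensity, parental CHO cells give background, Kd from one-site specific binding fit with Hill slope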
T3 construct: Expressed on the surface of stably transfected CHO cells; also called mouse FolR1; CHO-mouse FolR1

[4] = biological target: T2, human folate receptor alpha (hFOLR1); test: FACS, CHO-hFOLR1 cells;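 note: flow cytometry of serially diluted antibodies binding CHO cells stably expressing the receptor, 60 min on ice, mixed with dye-tagged parental CHO as background control, one-site specific fit with Hill slope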
[5] = biological target: T4, cynomolgus monkey folate receptor alpha (cynomolgus monkey, UniProt P15328 25-234 (human entry)); test: FACS, CHO-cFOLR1 cells
T4 construct: Expressed on the surface of stably transfected CHO cells; also called cyno FolR1; CHO-cyno FolR1
T4 sequence (P15328 other isoform, or with tags, fused parts or gaps limits assumed): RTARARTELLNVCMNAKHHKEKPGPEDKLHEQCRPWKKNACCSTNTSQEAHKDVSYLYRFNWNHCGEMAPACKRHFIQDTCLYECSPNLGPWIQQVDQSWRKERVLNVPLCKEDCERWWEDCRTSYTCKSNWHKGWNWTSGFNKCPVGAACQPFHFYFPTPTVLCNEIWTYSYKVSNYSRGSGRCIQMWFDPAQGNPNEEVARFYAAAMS

T1 sequence (P15328 25-233 limits assumed): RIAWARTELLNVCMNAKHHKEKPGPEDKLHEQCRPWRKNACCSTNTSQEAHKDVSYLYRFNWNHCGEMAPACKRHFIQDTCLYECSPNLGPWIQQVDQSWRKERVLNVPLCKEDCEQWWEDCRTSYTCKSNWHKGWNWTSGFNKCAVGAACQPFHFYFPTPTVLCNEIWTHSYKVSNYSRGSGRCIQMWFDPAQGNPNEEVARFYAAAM
T2 sequence (P15328 25-234 limits assumed): as the sequence (P15328 other isoform, or with tags, fused parts or gaps limits assumed) above, with T2I, R4W, K37R, R117Q, P146A, Y171H counted along it
T3 sequence (P35846 25-232 limits assumed): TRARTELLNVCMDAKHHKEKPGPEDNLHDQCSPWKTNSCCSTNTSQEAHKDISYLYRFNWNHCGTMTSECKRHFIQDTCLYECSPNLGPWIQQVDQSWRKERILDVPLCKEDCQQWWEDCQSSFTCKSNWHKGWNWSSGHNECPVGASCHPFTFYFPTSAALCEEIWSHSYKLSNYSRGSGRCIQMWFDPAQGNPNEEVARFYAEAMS

Binder | Kd [1] | koff [1] | kon [1] | Bmax (MFI) [3] | Kd [3] | Bmax (MFI) [4] | Kd [4] | Bmax (MFI) [5] | Kd [5] | Igrov, 2° Antibody Cell Killing, Nb-SC239: EC50 [2] | Igrov, 2° Antibody Cell Killing, Nb-SC239: Span [2] | KB, 2° Antibody Cell Killing, Nb-239: EC50 [2] | KB, 2° Antibody Cell Killing, Nb-239: Span [2]
SRP1848-G03 (antibody, V domains shown, IgG with common trastuzumab LC, cell-free expressed, HIS- and FLAG-tagged; also called Antibody 48) VH: EVQLVESGGGLVQPGGSLRLSCAASGFNISTYYIHWVRQAPGKGLEWVGGITPSDGFTDYADSVKGRSTISADTSKNTAYLQMNSLRAEDTAVYYCARGSWSWPSGHGYFLDYWGQGTLVTVSS VL: not shown | 1990 pM | 0.00197 s⁻¹ | 990000 M⁻¹ s⁻¹ | – | – | – | – | – | – | – | – | – | –
SRP1848-A07 (antibody, V domains shown, HC variant paired with trastuzumab LC, cell-free expressed, HIS- and FLAG-tagged; also called Antibody 5) VH: EVQLVESGGGLVQPGGSLRLSCAASGFNIGYHSIHWVRQAPGKGLEWVGEIFPVDGTTDYADSVKGRFTISADTSKNTAYLHMNSLRAEDTAVYYCARGFWAWRSGYGYYLDYWGQGTLVTVSS VL: not shown | – | – | – | 9650 MFI | 900 pM | 29200 MFI | 610 pM | 23600 MFI | 430 pM | 29 pM | 68% | 62 pM | 95%
SRP1848-F08 (antibody, V domains shown, IgG with common trastuzumab LC, cell-free expressed, HIS- and FLAG-tagged; also called Antibody 43) VH: EVQLVESGGGLVQPGGSLRLSCAAGGFNISNHSIHWVRQAPGKGVEWVGEIYPVDGITDYADSVKGRFTISADTSKNTAYLRMNSLRAEDTAVYYCARGSWYWQSGYSYYLDYWGQGTLVTVSS VL: not shown | 4580 pM | 0.00272 s⁻¹ | 594000 M⁻¹ s⁻¹ | – | – | – | – | – | – | – | – | – | –
SRP1848-H01 (antibody, V domains shown, IgG with common trastuzumab LC, cell-free expressed, HIS- and FLAG-tagged; also called Antibody 55) VH: EVQLVESGGGLVQPGGSLRLSCAASGFNIRTQSIHWVRQAPGKGLEWIGDIFPIDGITDYADSVKGRFTISADTSKNTAYLQMNSLRAEDTAVYYCARGSWSWPSGMDYYLDYWGQGTLVTVSS VL: not shown | 2110 pM | – | – | – | – | – | – | – | – | – | – | – | –
SRP1848-G01 (antibody, V domains shown, IgG with common trastuzumab LC, cell-free expressed, HIS- and FLAG-tagged; also called Antibody 47) VH: EVQLVESGGGLVQPGGSLRLSCAASGFNISRHSIHWVRQAPGKGLEWVGWIAPNDGSTDYADSVKGRFTISADTSKNTAYLQMNSLRAEDTAVYYCARGSWAWRSGYSYFLDYWGQGTLVTVSS VL: not shown | 5090 pM | 0.00226 s⁻¹ | 444000 M⁻¹ s⁻¹ | – | – | – | – | – | – | – | – | – | –
SRP1848-A04 (antibody, V domains shown, HC variant paired with trastuzumab LC, cell-free expressed, HIS- and FLAG-tagged; also called Antibody 3) VH: EVQLVESGGGLVQPGGSLRLSCAASGFNIDQSSIHWVRQAPGKGLEWVGVIYPVDGTTDYADSVKGRFTISADTSKNTAYLQMNSLRAEDTAVYYCARGAWSWRSGYGYYIDYWGQGTLVTVSS VL: not shown | – | – | – | 3890 MFI | 2000 pM | 26800 MFI | 430 pM | 23100 MFI | 300 pM | 15 pM | 64% | 52 pM | 92%
SRP1848-F09 (antibody, V domains shown, IgG with common trastuzumab LC, cell-free expressed, HIS- and FLAG-tagged; also called Antibody 44) VH: EVQLVESGGGLVQPGGSLRLSCAASGFNISNHYIHWVRQAPGKGLEWVGGISPLDGYTDYADSVKGRFTISADTSKNTAYLQMNSLRAEDTAVYYCARGAWSWRSGYGYYIDYWGQGTLVTVSS VL: not shown | 4850 pM | 0.00679 s⁻¹ | 1.4e+06 M⁻¹ s⁻¹ | – | – | – | – | – | – | – | – | – | –
SRP1848-F11 (antibody, V domains shown, IgG with common trastuzumab LC, cell-free expressed, HIS- and FLAG-tagged; also called Antibody 46) VH: EVQLVESGGGLVQPGGSLRLSCAASGFNISNNYIHWVRQAPGKGLEWVGGITPIDGNTDYADSVKGRFTISADTSMNTAYLQMNSLRAEDTAVYYCARGSWYWRAGYGYYLDYWGQGALVTVSS VL: not shown | 4710 pM | 0.0039 s⁻¹ | 828000 M⁻¹ s⁻¹ | – | – | – | – | – | – | – | – | – | –

The next lines start with results.

Kd [1] | koff [1] | kon [1] | Bmax (MFI) [3] | Kd [3] | Bmax (MFI) [4] | Kd [4] | Bmax (MFI) [5] | Kd [5] | Binder | Igrov, 2° Antibody Cell Killing, Nb-SC239: EC50 [2] | Igrov, 2° Antibody Cell Killing, Nb-SC239: Span [2] | KB, 2° Antibody Cell Killing, Nb-239: EC50 [2] | KB, 2° Antibody Cell Killing, Nb-239: Span [2]
2830 pM | 0.00247 s⁻¹ | 872000 M⁻¹ s⁻¹ | – | – | – | – | – | – | SRP1848-F10 (antibody, V domains shown, IgG with common trastuzumab LC, cell-free expressed, HIS- and FLAG-tagged; also called Antibody 45) VH: EVQLVESGGGLVQPGGSLRLSCAASGFNISNNSIHWVRQAPGKGLEWVGSIFPNDGYTDYADSVKGRFTISADTSKNTAYLQMNSLRAEDTAVYYCARGSWFWRSGYGYYLDYWGQGTLVTVSS VL: not shown | – | – | – | –
1560 pM | 0.00249 s⁻¹ | 1.6e+06 M⁻¹ s⁻¹ | – | – | – | – | – | – | SRP1848-F07 (antibody, V domains shown, IgG with common trastuzumab LC, cell-free expressed, HIS- and FLAG-tagged; also called Antibody 42) VH: EVQLVESGGGLVQPGGSLRLSCAASGFNISNHSIHWVRQAPGKGLEWVGEIYPNDGITDYADSVKGRFTISADTSKNTAYLQMNSLSAEDTAVYYCARGSWDWRSGYSYYLDYWGQGTLVTVSS VL: not shown | – | – | – | –
– | – | – | 2770 MFI | 2400 pM | 24500 MFI | 470 pM | 20200 MFI | 300 pM | SRP1848-A06 (antibody, V domains shown, HC variant paired with trastuzumab LC, cell-free expressed, HIS- and FLAG-tagged; also called Antibody 4) VH: EVQLVESGGGLVQPGGSLRLSCAASGFNIGNSYIHWVRQAPGKGLEWVGGITPIDGNTDYADSVKGRFTISADTSKNTAYLQMNSLRAEDTAVYYCARGAWSWRSGYGYYIDYWGQGTLVTVSS VL: not shown | – | 72% | 46 pM | 93%
– | – | – | 16500 MFI | 800 pM | 25900 MFI | 390 pM | 22600 MFI | 440 pM | SRP1848-A01 (antibody, V domains shown, HC variant paired with trastuzumab LC, cell-free expressed, HIS- and FLAG-tagged; also called Antibody 1) VH: EVQLVESGGGLVQPGGSLRLSCAASGFNITRYSIHWVRQAPGKGLEWVAGILPESGGTSYADSVKGRFTISADTSKNTAYLQMNSLRAEDTAVYYCARHIYPWDWFSNYVLDYWGQGTLVTVSS VL: not shown | 15 pM | 71% | 64 pM | 94%
